Data on eight molecules can be found in patent publication US7329737 (DYAX, dated 2008).

Substitutions are numbered along the chain they refer to.

The target of this experiment is T1, hK1 (human tissue kallikrein 1), recombinant (human, UniProt P06870 25-262).
T1 construct: Expressed in P. pastoris from KLK1 cDNA and purified; enzymatically active; also called KLK1; Recombinant (Pichia) Kallikrein
The experiment can be described thus: SPR. Background: SPR reads the build-up and loss of mass on a sensor chip optically.

In general, Kd refers to the concentration at which binding is half-saturated. What is called koff is the rate constant with which the complex falls apart. The term kon denotes the rate constant with which the complex forms.

B1: M0093-C02 (Fab, V domains shown)
VH: EVQLLESGGGLVQPGGSLRLSCAASGFTFSWYAMHWVRQAPGKGLEWVSWISPSGGQTKYADSVKGRFTISRDNSKNTLYLQMNSLRAEDTAVYYCARAKVLRYFDWLLGGDAFDIWGQGTMVTVSS
VL: DIQMTQSPGTLSLSPGDRATLSCRASQSVGSDYLAWYQQKPGQAPRLLIFAASTRATGIPDRFSGSGSATDFTLTISSLEPEDFAVYFCQQYASPPRTFGQGTKVEIKR
With B1, the Kd stood at 5.72 nM, the koff came out at 0.00103 s⁻¹ and the kon came to 180000 M⁻¹ s⁻¹.

B2: M0135-B05 (Fab, V domains shown)
VH: EVQLLESGGGLVQPGGSLRLSCAASGFTFSHYLMDWVRQAPGKGLEWVSVIYPSGGHTNYADSVKGRFTISRDNSKNTLYLQMNSLRAEDTAVYYCARVGVWYGMDVWGQGTTVTVSS
VL: DIQMTQSPSSLSASVGDRVTITCRASQSISTYLNWYQQKPGKAPNLLIYAASSLQSGVPSRFSGSGSGTDFTLTVSSLQPEDFGTYYCQQYNSFPFSFGQGTRLEINR
Consider B2, for which the Kd is 5.9 nM, the koff was 0.000655 s⁻¹ and the on-rate constant (kon) turned out to be 111000 M⁻¹ s⁻¹.

B3: M0121-A07 (Fab, V domains shown)
VH: EVQLLESGGGLVQPGGSLRLSCAASGFTFSHYLMYWVRQAPGKGLEWVSRIYPSGGATSYADSVKGRFTISRDNSKNTLYLQMNSLRAEDTAVYYCAKSGSWYSFDYWGQGTLVTVSS
VL: DIQMTQSPGTLSLSPGERATLSCRASQSVSSNYLAWYQQKPGQAPRLLMYGASYRATGIPDRFSGSGSGTDFTLTISSLQPEDFATYYCQQSYSTPWTFGQGTKVEIKR
Turning to B3, the Kd worked out at 4.75 nM, the koff was determined as 0.00438 s⁻¹ and the kon stood at 922000 M⁻¹ s⁻¹.

B4: M0115-G12 (Fab, V domains shown)
VH: EVQLLESGGGLVQPGGSLRLSCAASGFTFSPYFMEWVRQAPGKGLEWVSGISSSGGNTLYADSVKGRFTISRDNSKNTLYLQMNSLRAEDTAVYYCARDRFGNYYGSGSKLQHDAFDIWGQGTMVTVSS
VL: DIQMTQSPVTLSLSPGDRATLSCRASQSVSFNLAWYQHKPGQAPRLLMFDASNRATGIPDRFSGSGSGTDFTLTIKRLEPEDFAVYYCQQYGTSPFTFGPGTNVDVKR
Take B4: the Kd was 5.73 nM, the dissociation rate constant (koff) worked out at 0.000865 s⁻¹ and the kon was 151000 M⁻¹ s⁻¹.

B5: M0126-F11 (Fab, V domains shown)
VH: EVQLLESGGGLVQPGGSLRLSCAASGFTFSHYWMMWVRQAPGKGLEWVSWIGSSGGFTWYADSVKGRFTISRDNSKNTLYLQMNSLRAEDTAVYYCARGNGGFDSWGQGTLVTVSS
VL: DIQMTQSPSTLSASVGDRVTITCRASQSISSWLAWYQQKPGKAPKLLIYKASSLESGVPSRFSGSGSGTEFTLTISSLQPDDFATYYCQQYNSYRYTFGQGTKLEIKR
As for B5, the Kd is 5.05 nM, the koff was determined as 0.00144 s⁻¹ and the kon worked out at 285000 M⁻¹ s⁻¹.

B6: M0098-H04 (Fab, V domains shown)
VH: B5 VH with W33V, M35S, W50R, G52Y, S53P, F57Q, W59Y, N100A, G102W, S105P
VL: AQSELTQPPSASGSPGQSLTISCTGGRRDIGNYNYVSWYQQHPGKAPRLIIYDVRKRPSGVPDRFSGSKSGNVAFLTVSGLQTDDEADYYCGSYTGTSNVFGSGTTVTVLG
Consider B6, for which the Kd was found to be 5.53 nM, the koff is 0.00255 s⁻¹ and the kon came out at 461000 M⁻¹ s⁻¹.

B7: M0131-G03 (Fab, V domains shown)
VH: EVQLLESGGGLVQPGGSLRLSCAASGFTFSHYVMQWVRQAPGKGLEWVSSIYPSGGSTRYADSVKGRFTISRDNSKNTLYLQMNSLRAEDTAMYYCARFNVGFDLWGRGTLVTVSS
VL: B6 VL
B7: the Kd came out at 7.49 nM, the koff came out at 0.00256 s⁻¹ and the kon was found to be 341000 M⁻¹ s⁻¹.

B8: M0128-E07 (Fab, V domains shown)
VH: B5 VH with H31F, W33P, M35S, W50Y, G52W, S53P, F57A, W59R
VL: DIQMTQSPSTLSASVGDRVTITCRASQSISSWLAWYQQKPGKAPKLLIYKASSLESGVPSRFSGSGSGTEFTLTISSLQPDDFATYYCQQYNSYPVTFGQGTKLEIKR
Consider B8, for which the Kd was determined as 30.4 nM, the koff is 0.0147 s⁻¹ and the kon is 483000 M⁻¹ s⁻¹.
